Source: US20220040297A1 (Chugai, published 2022)

Molecular target: T1, CD3ε homodimer protein (human, UniProt P07766 23-126, limits assumed, sulfo-tag or biotin label in some ECL assays)
T1 construct: also called human CD3ε homodimer protein; CD3 (CD3ε)
Experiment: SPR, CD3ε homodimer on chip;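 note: biacore SPR with antibody variants flowed as analyte over amine-coupled CD3ε homodimer on a CM chip, bound amount of each single-residue H chain variant over that of parent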

T1 sequence (P07766 23-126 limits assumed): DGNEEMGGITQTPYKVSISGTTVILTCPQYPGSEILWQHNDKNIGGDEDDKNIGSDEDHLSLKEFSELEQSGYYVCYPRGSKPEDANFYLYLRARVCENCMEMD

Binder	ratio of amounts bound vs CE115HA000
CE115HA000 N31Q (antibody, name in Kabat numbering, V domains shown) VH: QVQLVESGGGVVQPGRSLRLSCAASGFTFSQAWMHWVRQAPGKGLEWVAQIKAKSNNYATYYAESVKGRFTISRDDSKNSLYLQMNSLKTEDTAVYYCRYVHYGAYYGVDAWGQGTTVTVSS VL: DIVMTQSPLSLPVTPGEPASISCRSSQSLVHSNRNTYLHWYQQKPGQAPRLLIYKVSNRFSGVPDRFSGSGSGTDFTLKISRVEAEDVGVYYCGQGTQVPYTFGQGTKLEIK	0.49
CE115HA000 N53A (antibody, name in Kabat numbering, V domains shown) VH: QVQLVESGGGVVQPGRSLRLSCAASGFTFSNAWMHWVRQAPGKGLEWVAQIKAKSANYATYYAESVKGRFTISRDDSKNSLYLQMNSLKTEDTAVYYCRYVHYGAYYGVDAWGQGTTVTVSS VL: DIVMTQSPLSLPVTPGEPASISCRSSQSLVHSNRNTYLHWYQQKPGQAPRLLIYKVSNRFSGVPDRFSGSGSGTDFTLKISRVEAEDVGVYYCGQGTQVPYTFGQGTKLEIK	0.7
CE115HA000 N53H (antibody, name in Kabat numbering, V domains shown) VH: QVQLVESGGGVVQPGRSLRLSCAASGFTFSNAWMHWVRQAPGKGLEWVAQIKAKSHNYATYYAESVKGRFTISRDDSKNSLYLQMNSLKTEDTAVYYCRYVHYGAYYGVDAWGQGTTVTVSS VL: DIVMTQSPLSLPVTPGEPASISCRSSQSLVHSNRNTYLHWYQQKPGQAPRLLIYKVSNRFSGVPDRFSGSGSGTDFTLKISRVEAEDVGVYYCGQGTQVPYTFGQGTKLEIK	0.76
CE115HA000 N53I (antibody, name in Kabat numbering, V domains shown) VH: QVQLVESGGGVVQPGRSLRLSCAASGFTFSNAWMHWVRQAPGKGLEWVAQIKAKSINYATYYAESVKGRFTISRDDSKNSLYLQMNSLKTEDTAVYYCRYVHYGAYYGVDAWGQGTTVTVSS VL: DIVMTQSPLSLPVTPGEPASISCRSSQSLVHSNRNTYLHWYQQKPGQAPRLLIYKVSNRFSGVPDRFSGSGSGTDFTLKISRVEAEDVGVYYCGQGTQVPYTFGQGTKLEIK	0.68
CE115HA000 N53G (antibody, name in Kabat numbering, V domains shown) VH: QVQLVESGGGVVQPGRSLRLSCAASGFTFSNAWMHWVRQAPGKGLEWVAQIKAKSGNYATYYAESVKGRFTISRDDSKNSLYLQMNSLKTEDTAVYYCRYVHYGAYYGVDAWGQGTTVTVSS VL: DIVMTQSPLSLPVTPGEPASISCRSSQSLVHSNRNTYLHWYQQKPGQAPRLLIYKVSNRFSGVPDRFSGSGSGTDFTLKISRVEAEDVGVYYCGQGTQVPYTFGQGTKLEIK	0.5
CE115HA000 N53D (antibody, name in Kabat numbering, V domains shown) VH: QVQLVESGGGVVQPGRSLRLSCAASGFTFSNAWMHWVRQAPGKGLEWVAQIKAKSDNYATYYAESVKGRFTISRDDSKNSLYLQMNSLKTEDTAVYYCRYVHYGAYYGVDAWGQGTTVTVSS VL: DIVMTQSPLSLPVTPGEPASISCRSSQSLVHSNRNTYLHWYQQKPGQAPRLLIYKVSNRFSGVPDRFSGSGSGTDFTLKISRVEAEDVGVYYCGQGTQVPYTFGQGTKLEIK	0.39
CE115HA000 N31W (antibody, name in Kabat numbering, V domains shown) VH: QVQLVESGGGVVQPGRSLRLSCAASGFTFSWAWMHWVRQAPGKGLEWVAQIKAKSNNYATYYAESVKGRFTISRDDSKNSLYLQMNSLKTEDTAVYYCRYVHYGAYYGVDAWGQGTTVTVSS VL: DIVMTQSPLSLPVTPGEPASISCRSSQSLVHSNRNTYLHWYQQKPGQAPRLLIYKVSNRFSGVPDRFSGSGSGTDFTLKISRVEAEDVGVYYCGQGTQVPYTFGQGTKLEIK	0.63
CE115HA000 N31R (antibody, name in Kabat numbering, V domains shown) VH: QVQLVESGGGVVQPGRSLRLSCAASGFTFSRAWMHWVRQAPGKGLEWVAQIKAKSNNYATYYAESVKGRFTISRDDSKNSLYLQMNSLKTEDTAVYYCRYVHYGAYYGVDAWGQGTTVTVSS VL: DIVMTQSPLSLPVTPGEPASISCRSSQSLVHSNRNTYLHWYQQKPGQAPRLLIYKVSNRFSGVPDRFSGSGSGTDFTLKISRVEAEDVGVYYCGQGTQVPYTFGQGTKLEIK	1.14
CE115HA000 N53Q (antibody, name in Kabat numbering, V domains shown) VH: QVQLVESGGGVVQPGRSLRLSCAASGFTFSNAWMHWVRQAPGKGLEWVAQIKAKSQNYATYYAESVKGRFTISRDDSKNSLYLQMNSLKTEDTAVYYCRYVHYGAYYGVDAWGQGTTVTVSS VL: DIVMTQSPLSLPVTPGEPASISCRSSQSLVHSNRNTYLHWYQQKPGQAPRLLIYKVSNRFSGVPDRFSGSGSGTDFTLKISRVEAEDVGVYYCGQGTQVPYTFGQGTKLEIK	1.1
CE115HA000 N31S (antibody, name in Kabat numbering, V domains shown) VH: QVQLVESGGGVVQPGRSLRLSCAASGFTFSSAWMHWVRQAPGKGLEWVAQIKAKSNNYATYYAESVKGRFTISRDDSKNSLYLQMNSLKTEDTAVYYCRYVHYGAYYGVDAWGQGTTVTVSS VL: DIVMTQSPLSLPVTPGEPASISCRSSQSLVHSNRNTYLHWYQQKPGQAPRLLIYKVSNRFSGVPDRFSGSGSGTDFTLKISRVEAEDVGVYYCGQGTQVPYTFGQGTKLEIK	0.81
CE115HA000 N31Y (antibody, name in Kabat numbering, V domains shown) VH: QVQLVESGGGVVQPGRSLRLSCAASGFTFSYAWMHWVRQAPGKGLEWVAQIKAKSNNYATYYAESVKGRFTISRDDSKNSLYLQMNSLKTEDTAVYYCRYVHYGAYYGVDAWGQGTTVTVSS VL: DIVMTQSPLSLPVTPGEPASISCRSSQSLVHSNRNTYLHWYQQKPGQAPRLLIYKVSNRFSGVPDRFSGSGSGTDFTLKISRVEAEDVGVYYCGQGTQVPYTFGQGTKLEIK	0.64
CE115HA000 N53K (antibody, name in Kabat numbering, V domains shown) VH: QVQLVESGGGVVQPGRSLRLSCAASGFTFSNAWMHWVRQAPGKGLEWVAQIKAKSKNYATYYAESVKGRFTISRDDSKNSLYLQMNSLKTEDTAVYYCRYVHYGAYYGVDAWGQGTTVTVSS VL: DIVMTQSPLSLPVTPGEPASISCRSSQSLVHSNRNTYLHWYQQKPGQAPRLLIYKVSNRFSGVPDRFSGSGSGTDFTLKISRVEAEDVGVYYCGQGTQVPYTFGQGTKLEIK	0.78

Second part, the binder after the results:

ratio of amounts bound vs CE115HA000	Binder
1.12	CE115HA000 N54F (antibody, name in Kabat numbering, V domains shown) VH: QVQLVESGGGVVQPGRSLRLSCAASGFTFSNAWMHWVRQAPGKGLEWVAQIKAKSNFYATYYAESVKGRFTISRDDSKNSLYLQMNSLKTEDTAVYYCRYVHYGAYYGVDAWGQGTTVTVSS VL: DIVMTQSPLSLPVTPGEPASISCRSSQSLVHSNRNTYLHWYQQKPGQAPRLLIYKVSNRFSGVPDRFSGSGSGTDFTLKISRVEAEDVGVYYCGQGTQVPYTFGQGTKLEIK
0.94	CE115HA000 N54L (antibody, name in Kabat numbering, V domains shown) VH: QVQLVESGGGVVQPGRSLRLSCAASGFTFSNAWMHWVRQAPGKGLEWVAQIKAKSNLYATYYAESVKGRFTISRDDSKNSLYLQMNSLKTEDTAVYYCRYVHYGAYYGVDAWGQGTTVTVSS VL: DIVMTQSPLSLPVTPGEPASISCRSSQSLVHSNRNTYLHWYQQKPGQAPRLLIYKVSNRFSGVPDRFSGSGSGTDFTLKISRVEAEDVGVYYCGQGTQVPYTFGQGTKLEIK
0.84	CE115HA000 N54Q (antibody, name in Kabat numbering, V domains shown) VH: QVQLVESGGGVVQPGRSLRLSCAASGFTFSNAWMHWVRQAPGKGLEWVAQIKAKSNQYATYYAESVKGRFTISRDDSKNSLYLQMNSLKTEDTAVYYCRYVHYGAYYGVDAWGQGTTVTVSS VL: DIVMTQSPLSLPVTPGEPASISCRSSQSLVHSNRNTYLHWYQQKPGQAPRLLIYKVSNRFSGVPDRFSGSGSGTDFTLKISRVEAEDVGVYYCGQGTQVPYTFGQGTKLEIK
0.85	CE115HA000 N54A (antibody, name in Kabat numbering, V domains shown) VH: QVQLVESGGGVVQPGRSLRLSCAASGFTFSNAWMHWVRQAPGKGLEWVAQIKAKSNAYATYYAESVKGRFTISRDDSKNSLYLQMNSLKTEDTAVYYCRYVHYGAYYGVDAWGQGTTVTVSS VL: DIVMTQSPLSLPVTPGEPASISCRSSQSLVHSNRNTYLHWYQQKPGQAPRLLIYKVSNRFSGVPDRFSGSGSGTDFTLKISRVEAEDVGVYYCGQGTQVPYTFGQGTKLEIK
0.83	CE115HA000 N53S (antibody, name in Kabat numbering, V domains shown) VH: QVQLVESGGGVVQPGRSLRLSCAASGFTFSNAWMHWVRQAPGKGLEWVAQIKAKSSNYATYYAESVKGRFTISRDDSKNSLYLQMNSLKTEDTAVYYCRYVHYGAYYGVDAWGQGTTVTVSS VL: DIVMTQSPLSLPVTPGEPASISCRSSQSLVHSNRNTYLHWYQQKPGQAPRLLIYKVSNRFSGVPDRFSGSGSGTDFTLKISRVEAEDVGVYYCGQGTQVPYTFGQGTKLEIK
0.98	CE115HA000 N54G (antibody, name in Kabat numbering, V domains shown) VH: QVQLVESGGGVVQPGRSLRLSCAASGFTFSNAWMHWVRQAPGKGLEWVAQIKAKSNGYATYYAESVKGRFTISRDDSKNSLYLQMNSLKTEDTAVYYCRYVHYGAYYGVDAWGQGTTVTVSS VL: DIVMTQSPLSLPVTPGEPASISCRSSQSLVHSNRNTYLHWYQQKPGQAPRLLIYKVSNRFSGVPDRFSGSGSGTDFTLKISRVEAEDVGVYYCGQGTQVPYTFGQGTKLEIK
0.88	CE115HA000 N53W (antibody, name in Kabat numbering, V domains shown) VH: QVQLVESGGGVVQPGRSLRLSCAASGFTFSNAWMHWVRQAPGKGLEWVAQIKAKSWNYATYYAESVKGRFTISRDDSKNSLYLQMNSLKTEDTAVYYCRYVHYGAYYGVDAWGQGTTVTVSS VL: DIVMTQSPLSLPVTPGEPASISCRSSQSLVHSNRNTYLHWYQQKPGQAPRLLIYKVSNRFSGVPDRFSGSGSGTDFTLKISRVEAEDVGVYYCGQGTQVPYTFGQGTKLEIK
1.2	CE115HA000 N54K (antibody, name in Kabat numbering, V domains shown) VH: QVQLVESGGGVVQPGRSLRLSCAASGFTFSNAWMHWVRQAPGKGLEWVAQIKAKSNKYATYYAESVKGRFTISRDDSKNSLYLQMNSLKTEDTAVYYCRYVHYGAYYGVDAWGQGTTVTVSS VL: DIVMTQSPLSLPVTPGEPASISCRSSQSLVHSNRNTYLHWYQQKPGQAPRLLIYKVSNRFSGVPDRFSGSGSGTDFTLKISRVEAEDVGVYYCGQGTQVPYTFGQGTKLEIK
0.62	CE115HA000 N54D (antibody, name in Kabat numbering, V domains shown) VH: QVQLVESGGGVVQPGRSLRLSCAASGFTFSNAWMHWVRQAPGKGLEWVAQIKAKSNDYATYYAESVKGRFTISRDDSKNSLYLQMNSLKTEDTAVYYCRYVHYGAYYGVDAWGQGTTVTVSS VL: DIVMTQSPLSLPVTPGEPASISCRSSQSLVHSNRNTYLHWYQQKPGQAPRLLIYKVSNRFSGVPDRFSGSGSGTDFTLKISRVEAEDVGVYYCGQGTQVPYTFGQGTKLEIK
